# Where two headings read alike, the source gives them in different places.
# T1: recombinant human APRIL (human, UniProt O75888 105-250, limits assumed)
# T1 sequence (looked up): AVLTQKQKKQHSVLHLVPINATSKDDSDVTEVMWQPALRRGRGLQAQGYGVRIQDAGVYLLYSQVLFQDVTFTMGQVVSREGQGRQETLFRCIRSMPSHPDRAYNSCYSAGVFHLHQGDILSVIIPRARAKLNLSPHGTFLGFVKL
# T2: recombinant mouse APRIL (mouse, UniProt Q9D777 96-241, limits assumed)
# T2 sequence (looked up): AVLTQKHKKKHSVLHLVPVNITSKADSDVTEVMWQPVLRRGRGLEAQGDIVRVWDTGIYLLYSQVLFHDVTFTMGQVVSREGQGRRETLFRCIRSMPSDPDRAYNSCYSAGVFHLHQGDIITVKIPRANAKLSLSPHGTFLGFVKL
# Legend:
# [1] = target: T3, recombinant human BAFF (human, UniProt Q9Y275 134-285); assay: SPR
# T3 construct: also called BAFF (3-mer); TNFSF13B
# [2] = target: T3, recombinant human BAFF; assay: SPR; remark: listed apart in the source
# [3] = target: T1, recombinant human APRIL; assay: cell-based or functional assay
# [4] = target: T3, recombinant human BAFF; assay: cell-based or functional assay
# [5] = target: T1, recombinant human APRIL; assay: cell-based or functional assay; remark: listed apart in the source
# [6] = target: T3, recombinant human BAFF; assay: cell-based or functional assay; remark: listed apart in the source
# [7] = target: T2, recombinant mouse APRIL; assay: cell-based or functional assay
# [8] = target: T4, recombinant mouse BAFF (mouse, UniProt Q9WU72 127-309); assay: cell-based or functional assay
# [9] = target: cynomolgus monkey APRIL (cynomolgus monkey); assay: cell-based or functional assay
# [10] = target: cynomolgus monkey BAFF (cynomolgus monkey, UniProt A0A2K5V2X4 134-285); assay: cell-based or functional assay
# [11] = target: rat APRIL (rat); assay: cell-based or functional assay
# [12] = target: rat BAFF (rat); assay: cell-based or functional assay
# [13] = target: T1, recombinant human APRIL; assay: cell-based or functional assay; remark: listed apart in the source
# [14] = target: T3, recombinant human BAFF; assay: cell-based or functional assay; remark: listed apart in the source
# [15] = target: T1, recombinant human APRIL; assay: cell-based or functional assay; remark: listed apart in the source
# [16] = target: T3, recombinant human BAFF; assay: cell-based or functional assay; remark: listed apart in the source
# [17] = target: T1, recombinant human APRIL; assay: cell-based or functional assay; remark: listed apart in the source
# [18] = target: T3, recombinant human BAFF; assay: cell-based or functional assay; remark: listed apart in the source
# [19] = target: T2, recombinant mouse APRIL; assay: cell-based or functional assay; remark: listed apart in the source
# [20] = target: T4, recombinant mouse BAFF; assay: cell-based or functional assay; remark: listed apart in the source
# [21] = target: BAFF 60-mer (human, UniProt Q9Y275 134-285, limits assumed); assay: cell-based or functional assay
# [22] = target: single chain BAFF-APRIL-APRIL heterotrimer (BAA) (human, UniProt Q9Y275 140-285; O75888 111-250; O75888 111-250, limits assumed); assay: cell-based or functional assay
# [23] = target: single chain APRIL-BAFF-BAFF heterotrimer (ABB) (human, UniProt O75888 111-250; Q9Y275 140-285; Q9Y275 140-285, limits assumed); assay: cell-based or functional assay
# [24] = target: single chain BAFF homotrimer (BAFF-BAFF-BAFF) (human, UniProt Q9Y275 140-285, limits assumed); assay: cell-based or functional assay
# [25] = target: T1, recombinant human APRIL; assay: SPR, apparent (KD app)
# [26] = target: T1, recombinant human APRIL; assay: SPR, apparent (kd app)
# [27] = target: T1, recombinant human APRIL; assay: cell-based or functional assay; remark: listed apart in the source
# [28] = target: T3, recombinant human BAFF; assay: cell-based or functional assay; remark: listed apart in the source
# [29] = target: T1, recombinant human APRIL; assay: cell-based or functional assay; remark: listed apart in the source
# [30] = target: T3, recombinant human BAFF; assay: cell-based or functional assay; remark: listed apart in the source
# [31] = target: T3, recombinant human BAFF; assay: cell-based or functional assay; remark: listed apart in the source
# [32] = target: T4, recombinant mouse BAFF; assay: cell-based or functional assay; remark: listed apart in the source
# [33] = target: T3, recombinant human BAFF; assay: cell-based or functional assay; remark: listed apart in the source
# [34] = target: T1, recombinant human APRIL; assay: SPR, apparent (ka app); apparent (ka app)
# T4 sequence (Q9WU72 127-309 limits assumed): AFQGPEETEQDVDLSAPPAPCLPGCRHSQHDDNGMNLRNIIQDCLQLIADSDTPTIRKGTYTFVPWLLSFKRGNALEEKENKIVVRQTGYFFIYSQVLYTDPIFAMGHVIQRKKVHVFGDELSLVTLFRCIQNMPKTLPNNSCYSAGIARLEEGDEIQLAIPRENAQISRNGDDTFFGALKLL
binder,measurement,setting,value
"26 TACI CRD2-Fc (Fc fusion, also called TACI (26)-Fc_73; 26 TACI-Fc) SLSCRKEQGEYYDHLLRDCISCASICGQHPKQCADFCENKLRSGSGGGGSEPKSSDKTHTCPPCPAPEAEGAPSVFLFPPKPKDTLMISRTPEVTCVVVDVSHEDPEVKFNWYVDGVEVHNAKTKPREEQYNSTYRVVSVLTVLHQDWLNGKEYKCKVSNKALPAPIEKTISKAKGQPREPQVYTLPPSRDELTKNQVSLTCLVKGFYPSDIAVEWESNGQPENNYKTTPPVLDSDGSFFLYSKLTVDKSRWQQGNVFSCSVMHEALHNHYTQKSLSLSPG",fold better affinity than telitacicept,[1],~8 fold
same,Kd,[2],0.0593 nM
same,koff,[2],3.67e-05 s⁻¹
same,kon,[2],619000 M⁻¹ s⁻¹
same,fold better neutralization than the anti-APRIL mAb,[3],5.7 fold
same,fold better neutralization than belimumab,[4],3.4 fold
same,"IC50, Jurkat/NF-kB/TACI reporter",[5],3.4 nM
same,"IC50, Jurkat/NF-kB/TACI reporter",[6],2.8 nM
same,"IC50, Jurkat/NF-kB/TACI reporter",[7],24.5 nM
same,"IC50, Jurkat/NF-kB/TACI reporter",[8],15.2 nM
same,"IC50, Jurkat/NF-kB/TACI reporter",[9],3.3 nM
same,"IC50, Jurkat/NF-kB/TACI reporter",[10],1.9 nM
same,"IC50, Jurkat/NF-kB/TACI reporter",[11],22.7 nM
same,"IC50, Jurkat/NF-kB/TACI reporter",[12],3.8 nM
same,"IC50, Jurkat/NF-kB/TACI reporter",[13],179 nM
same,IC50 relative to TACI 30-110-Fc,[13],0.05 ratio
same,"IC50, Jurkat/NF-kB/TACI reporter",[14],1220 nM
same,IC50 relative to TACI 30-110-Fc,[14],0.21 ratio
same,"IC50, Jurkat/NF-kB/TACI reporter",[15],1.76 nM
same,"IC50, Jurkat/NF-kB/TACI reporter",[16],1.34 nM
same,"IC50, TACI/Jurkat/NF-kB reporter",[17],3.8 nM
same,"IC50, TACI/Jurkat/NF-kB reporter",[18],1.4 nM
same,"IC50, TACI/Jurkat/NF-kB reporter",[19],0.9 nM
same,"IC50, TACI/Jurkat/NF-kB reporter",[20],1 nM
same,"IC50, TACI/Jurkat/NF-kB reporter",[21],14.7 nM
same,"IC50, TACI/Jurkat/NF-kB reporter",[22],< 0.016 nM
same,"IC50, TACI/Jurkat/NF-kB reporter",[23],0.103 nM
same,"IC50, TACI/Jurkat/NF-kB reporter",[24],3.36 nM
same,Kd,[25],0.001 nM
same,koff,[26],0.007 s⁻¹
same,"IC50, Jurkat/NF-kB/TACI reporter",[27],214 nM
same,IC50 relative to TACI 30-110,[27],0.05 ratio
same,"IC50, Jurkat/NF-kB/TACI reporter",[28],1270 nM
same,IC50 relative to TACI 30-110,[28],0.28 ratio
same,"IC50, Jurkat/NF-kB/TACI reporter",[29],9.21 nM
same,IC50 relative to WT TACI (68-110)-Fc (Δ WT),[29],0.75 ratio
same,"IC50, Jurkat/NF-kB/TACI reporter",[30],1.55 nM
same,IC50 relative to WT TACI (68-110)-Fc (Δ WT),[30],0.84 ratio
same,"IC50 (read off the curve), human BAFF, NF-κB luciferase reporter, Jurkat/NF-κB/TACI cells",[31],~1 nM
same,"IC50 (read off the curve), mouse BAFF, NF-κB luciferase reporter, Jurkat/NF-κB/TACI cells",[32],~1 nM
same,"IC50 (read off the curve), human BAFF, NF-κB luciferase reporter, TACI/Jurkat/NF-κB cells",[33],1 to 2 nM
same,kon,[34],7e+09 M⁻¹ s⁻¹
"Belimumab (antibody, V domains shown) VH: QVQLQQSGAEVKKPGSSVRVSCKASGGTFNNNAINWVRQAPGQGLEWMGGIIPMFGTAKYSQNFQGRVAITADESTGTASMELSSLRSEDTAVYYCARSRDLLLFPHHALSPWGRGTMVTVSS VL: SSELTQDPAVSVALGQTVRVTCQGDSLRSYYASWYQQKPGQAPVLVIYGKNNRPSGIPDRFSGSSSGNTASLTITGAQAEDEADYYCSSRDSSGNHWVFGGGTELTVLG","IC50, Jurkat/NF-kB/TACI reporter",[14],2500 nM
same,IC50 relative to TACI 30-110-Fc,[14],0.43 ratio
same,"IC50, Jurkat/NF-kB/TACI reporter",[16],2.26 nM
same,"IC50, TACI/Jurkat/NF-kB reporter",[18],4.8 nM
same,"IC50, TACI/Jurkat/NF-kB reporter",[23],0.09 nM
same,"IC50, TACI/Jurkat/NF-kB reporter",[24],8.52 nM
same,"IC50, Jurkat/NF-kB/TACI reporter",[30],2.19 nM
same,IC50 relative to WT TACI (68-110)-Fc (Δ WT),[30],1.18 ratio
